Assay results as given in paper PMC3659392 (Science translational medicine, 2012).

Assays:
DprE1 [1] = biological target: T1, DprE1 (Mycolicibacterium smegmatis, UniProt A0R607); assay: crystal structure of covalent adduct; type: biochemical
T1 sequence (A0R607 1-460): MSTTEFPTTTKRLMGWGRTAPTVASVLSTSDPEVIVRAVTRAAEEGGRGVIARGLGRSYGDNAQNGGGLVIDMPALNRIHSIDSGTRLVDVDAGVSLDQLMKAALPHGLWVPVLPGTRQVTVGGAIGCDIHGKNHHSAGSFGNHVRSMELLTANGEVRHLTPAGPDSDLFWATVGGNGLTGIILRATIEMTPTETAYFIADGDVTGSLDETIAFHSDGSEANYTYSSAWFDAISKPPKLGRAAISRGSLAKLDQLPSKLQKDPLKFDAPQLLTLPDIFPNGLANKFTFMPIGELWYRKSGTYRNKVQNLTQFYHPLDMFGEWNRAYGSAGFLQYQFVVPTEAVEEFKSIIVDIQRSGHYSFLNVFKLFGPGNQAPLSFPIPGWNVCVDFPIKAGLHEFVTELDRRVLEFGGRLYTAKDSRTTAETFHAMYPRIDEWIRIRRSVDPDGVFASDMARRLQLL

DprE1 [2] = biological target: T1, DprE1; assay: DCPIP enzyme assay, […] min incubation; type: biochemical
purified protein [3] = substrate: CC(C)=CCC/C(C)=C/CC/C(C)=C/COP(=O)(O)O[C@@H]1O[C@H](CO)[C@@H](O)[C@H]1O; assay: purified protein; conditions: FAD; pH 8.5
purified protein [4] = substrate: O=C1C(Cl)=CC(=Nc2ccc(O)cc2)C=C1Cl; assay: purified protein; conditions: FAD electron acceptor re-oxidizing reduced FAD

With `C[C@H]1COC2(CCN(c3nc(=O)c4cc(C(F)(F)F)cc([N+](=O)[O-])c4s3)CC2)O1` [BTZ043] the IC50 (DprE1 [1]) was 4.5 µM.

For `C[C@H]1COC2(CCN(c3nc(=O)c4cc(C(F)(F)F)cc(N)c4s3)CC2)O1` [BTZ045], the IC50 (DprE1 [2]) was 11 µM.

`C[C@H]1COC2(CCN(c3nc(=O)c4cc(C(F)(F)F)cc(NO)c4s3)CC2)O1` [BTZ046] gave an IC50 (DprE1 [2]) of 19.7 µM.

B1: DprE1 (Mycolicibacterium smegmatis MC2 155) (protein)
chain: MSTTEFPTTTKRLMGWGRTAPTVASVLSTSDPEVIVRAVTRAAEEGGRGVIARGLGRSYGDNAQNGGGLVIDMPALNRIHSIDSGTRLVDVDAGVSLDQLMKAALPHGLWVPVLPGTRQVTVGGAIGCDIHGKNHHSAGSFGNHVRSMELLTANGEVRHLTPAGPDSDLFWATVGGNGLTGIILRATIEMTPTETAYFIADGDVTGSLDETIAFHSDGSEANYTYSSAWFDAISKPPKLGRAAISRGSLAKLDQLPSKLQKDPLKFDAPQLLTLPDIFPNGLANKFTFMPIGELWYRKSGTYRNKVQNLTQFYHPLDMFGEWNRAYGSAGFLQYQFVVPTEAVEEFKSIIVDIQRSGHYSFLNVFKLFGPGNQAPLSFPIPGWNVCVDFPIKAGLHEFVTELDRRVLEFGGRLYTAKDSRTTAETFHAMYPRIDEWIRIRRSVDPDGVFASDMARRLQLL
For B1, the Km (purified protein [3]) was 110 µM, the kcat (purified protein [3]) was 0.212 ± 0.01 s⁻¹ and the kcat/Km (purified protein [3]) was 1930 ± 182 M⁻¹ s⁻¹. For the same molecule, the Km (purified protein [4]) was 4.2 µM.
